Measurements reported in US20260242721A1, “A SYNTHETIC CELLULAR ADVANCED SIGNAL ADAPTER (SCASA) SYSTEM” (Danmarks Tekniske Universitet, priority 2023, published 2026).

Tests used:
[1] = biological target: Aga2-HA-PAS40-(G4S)3-CD19-myc yeast surface display fusion protein (CD19.1 ECD displayed on SCASA yeast aAPCs) (synthetic construct, CD19 part modified from human); assay: cell-based or functional assay
[2] = biological target: CD19 on the human CD19+ NALM6 B cell precursor leukemia cell line (human) (UniProt P15391); assay: cell-based or functional assay
Sequence of UniProt P15391 (P15391 20-556): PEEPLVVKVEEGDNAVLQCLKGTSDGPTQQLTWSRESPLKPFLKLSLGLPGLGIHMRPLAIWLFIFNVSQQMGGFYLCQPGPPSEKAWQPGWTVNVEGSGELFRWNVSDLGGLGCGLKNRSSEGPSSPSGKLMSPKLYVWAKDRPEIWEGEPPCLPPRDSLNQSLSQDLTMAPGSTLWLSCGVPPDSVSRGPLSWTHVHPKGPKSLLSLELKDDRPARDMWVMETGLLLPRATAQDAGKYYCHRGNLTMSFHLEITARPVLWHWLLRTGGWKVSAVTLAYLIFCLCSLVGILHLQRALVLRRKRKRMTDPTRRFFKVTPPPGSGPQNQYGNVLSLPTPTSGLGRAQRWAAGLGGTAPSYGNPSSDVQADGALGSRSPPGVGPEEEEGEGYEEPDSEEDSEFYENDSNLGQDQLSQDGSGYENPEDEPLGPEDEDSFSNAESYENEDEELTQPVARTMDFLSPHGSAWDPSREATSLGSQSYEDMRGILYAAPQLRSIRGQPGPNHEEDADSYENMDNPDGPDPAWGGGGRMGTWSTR

[3] = biological target: Schizosaccharomyces pombe P-factor pheromone receptor (Mam2) (Schizosaccharomyces pombe) (UniProt Q00619); assay: cell-based or functional assay
Sequence of UniProt Q00619 (Q00619 other isoform, or with tags, fused parts or gaps): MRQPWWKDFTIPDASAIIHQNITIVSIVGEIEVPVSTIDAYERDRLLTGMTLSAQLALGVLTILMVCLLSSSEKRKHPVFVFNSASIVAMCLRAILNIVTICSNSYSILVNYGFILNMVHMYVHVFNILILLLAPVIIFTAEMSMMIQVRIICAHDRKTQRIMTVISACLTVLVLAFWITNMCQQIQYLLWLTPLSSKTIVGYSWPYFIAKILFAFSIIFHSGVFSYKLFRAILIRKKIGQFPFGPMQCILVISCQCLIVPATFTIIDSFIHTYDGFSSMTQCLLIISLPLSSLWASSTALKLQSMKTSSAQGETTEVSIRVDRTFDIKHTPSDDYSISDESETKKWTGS

[4] = tested on: pheromone response pathway (PRP)
Procedure: To investigate the dose-response features of the selected promoters PMFA2, PFUS1, PAGA2, PFIG.1, PMFA1, PYCL076W, PHPF1, PIME4, PCSS1, PTDH3, PPGK1 and P6XLexOLEU2 upon GPCR stimulation the strains were pre-grown in SC (24 hrs.), whereafter, for each replicate, cells were transferred to 200 μL volumes comprising a 10-fold dilution series of α-factor (0-100 μM) (GenScript) dissolved in SC+1% DMSO, and stimulated for 5 hrs. (30° C., 250 r.p.m.). Flow cytometric measurement was done to quantify yEGFP levels (B525/45-A) and PRP-regulated morphological changes, denoted shmooing (SSC-A) using a NovoCyte Quanteon flow cytometer (Agilent). Data represents means of median fluorescence intensity (mMFI) for three biological replicates and standard deviations hereof. Two-way ANOVA with Tukey's multiple comparisons test was conducted for all conditions.

[5] = tested on: CD19; assay: Yeast surface display (YSD) of CD19, antibody staining and flow cytometry; assay type: cell-based, Saccharomyces cerevisiae
Procedure: To investigate the different variants of CD19 modules, yeast cells were grown and, in some cases, stimulated to present CD19 differentially, whereafter they were stained with antibodies and assessed by flow cytometry. Flow cytometric measurement was done using a NovoCyte Quanteon flow cytometer (Agilent) to quantify CD19 by staining with mouse anti-CD19 (FMC63) (Absolute Antibody; Ab00613) and goat anti-mouse-AF647 (polyclonal) (Thermo Fisher; A-21236), detected in R667/30-H, as well as rabbit anti-HA (RM305) (Thermo Fisher; MA5-27915) and goat anti-rabbit-AF488 (polyclonal) (Thermo Fisher; A-11008), detected in B525/45-H (see FIG. 7), and to measure PRP-regulated morphological changes (SSC-H). […] Data represents means of median fluorescence intensity (mMFI) for three biological replicates and standard deviations hereof. Two-way ANOVA with multiple comparisons tests was conducted for all conditions. Histograms are representative replicates. No SSC-normalization was used in the evaluation of the effector module, unlike in Example 1, as it is the absolute response of all effects combined that constitute the total output that CAR T cells interpret and react to.
For conventional YSD using strain EBY100 and pCT-plasmid-based expression (Chao et al. 2006, Isolating and engineering human antibodies using yeast surface display. Nature Protocols, 1(2), 755-768), strains were pre-grown in SC −trp, then transferred to 5 mL SC −trp +2% Gal for induction of YSD or +2% Gluc as a negative control (24 hrs., 30° C., 250 r.p.m.). NALM6 was cultured in RPMI 1640 medium (ATCC modification) (Thermo Fisher) with 10% fetal bovine serum and 1% pen-strep (RPMI+10% FBS) at 37° C. with 5% CO2. For the investigation of PGAL1-titratability of DIX41 with pMAD58 and DIX74, strains were pre-grown in SC −ura and SC, respectively, then transferred to SC −ura and SC, respectively, with varying concentrations of galactose (0.0002%-2% Gal), using raffinose as compensating carbon source, and YSD was induced for 24 hrs. (30° C., 250 r.p.m.). Strains were similarly grown in 2% Gluc as negative controls. For the investigation of the strain library with constitutive and dynamically regulated expression of CD19 (Background strain/No YSD, PPGK1-Empty, PMFA2-CD19, PFUS1-CD19, PFIG.1-CD19, PMFA1-CD19, PHPF1-CD19, PTDH3-CD19, PPGK1-CD19) the strains were pre-grown in SC, whereafter, for each replicate, 50.000 cells were transferred to 300 μL volumes comprising a 10-fold dilution series of α-factor (0-100 μM) (GenScript) dissolved in SC+1% DMSO, and stimulated for 20 hrs. (30° C., 250 r.p.m.).

Molecule “anti-CD19 CAR (FMC63-CD8α-4-1BB-CD3ζ) (receptor)” has a fold specific activation of CAR+ Jurkat NFAT-Luc cells, yeast PFUS1-CD19 at 0.01 µM α-factor [1] of 3.2 fold, a fold specific activation of CAR+ Jurkat NFAT-Luc cells, yeast PTDH3-CD19 at 0.001 µM α-factor [1] of 27.7 fold and an increase of CAR+ Jurkat NFAT-Luc activation relative to the uninduced condition, yeast PTDH3-CD19 at 0.1 µM α-factor [1] of 10.3 fold. For the same molecule, the increase of CAR+ Jurkat NFAT-Luc specific activation relative to the unstimulated condition, yeast PMFA2-CD19 at 0.01 µM α-factor [1] was 15.3 fold, the increase of CAR+ Jurkat NFAT-Luc specific activation relative to the unstimulated condition, yeast PMFA2-CD19 at 0.1 µM α-factor [1] was 14.5 fold and the increase of CAR+ Jurkat NFAT-Luc specific activation relative to the unstimulated condition, yeast PMFA2-CD19 at 1 µM α-factor [1] was 13.6 fold. It also gave an increase of CAR+ Jurkat NFAT-Luc specific activation relative to the unstimulated state, yeast PFUS1-CD19 at 1 µM α-factor [1] of 3.1 fold, a maximal fold specific activation of Jurkat NFAT-Luc cells without GPCR stimulation, yeast PMFA2-CD19, 90% CAR+ [1] of 5.5 fold and a maximal fold specific activation of Jurkat NFAT-Luc cells without GPCR stimulation, yeast PPGK1-CD19, 100% CAR+ [1] of 11.5 fold. It also gave a maximal fold specific activation of Jurkat NFAT-Luc cells without GPCR stimulation, yeast PTDH3-CD19, 70% CAR+ [1] of 12.8 fold, a maximal specific activation of 100% CAR+ Jurkat NFAT-Luc cells (luciferase), yeast PFUS1-CD19 pre-stimulated with 1 µM α-factor [1] of 4.1 fold and a maximal specific activation of 100% CAR+ Jurkat NFAT-Luc cells (luciferase), yeast PMFA2-CD19 pre-stimulated with 0.01 µM α-factor [1] of 22.3 fold. The maximal specific activation of 100% CAR+ Jurkat NFAT-Luc cells (luciferase), yeast PTDH3-CD19 pre-stimulated with 0.1 µM α-factor [1] was 61.9 fold, the maximal specific activation of CAR+ Jurkat NFAT-Luc cells by yeast PTDH3-CD19 relative to NALM6 [1] was 2.2 fold and the maximal specific activation by NALM6 relative to any SCASA yeast aAPC without GPCR stimulation [2] was 2.2 fold. For the same molecule, the peaking activation intensity of Jurkat NFAT-Luc cells co-cultured with NALM6, 90% CAR+ [2] was 28.1 fold.

With P-factor (GenScript) (peptide) the fold change of CD19 expression (PFUS1 cassette, anti-HA staining), strain DIX60, pH=5, 0-10 µM P-factor [3] was 249 fold.

B1: PFIG.1: pheromone-responsive Saccharomyces cerevisiae promoter, SEQ ID NO: 9, processing module (yEGFP strain DIX25, CD19 strain DIX56) (nucleic acid, listed as Saccharomyces cerevisiae)
DNA: TTGAATGATCAACCAAACGCCGATATAGTCACTATTGGTGATAAAATTAAAATGCAGCTATTGAGAACCCATCCTAACAACATTAAATTGTCTATTAATGGAATTGGTAAAGATGCCCCAACTTTCCAAGAATCTGCTTTGATTGCCGATAAGTTATTGAGTGTCATGAAGGCCGGCACTTACCCAAAGATTTCCATTTTCTACAATGACCCAGTGTCTTCCCTATCTTTTGAACCATCTGAAAAACCGATCTTTAACGCCAAGACCATTGAACAATCCCCATCATTCGGCAAATTTGAGATCGACACGGACGCAAACGTTCCAAGAGATTTGTTTGAATATACTTTGGCTAACCAAATGTTGACAGCAATGGCTCAAGGTTATGCTGCTGAAATTTCCGCCAGAAGAAACGCTATGGATAACGCTTCCAAGAATGCCGGTGATATGATCAATCGTTACTCTATCTTGTACAACAGAACAAGACAAGCTGTCATTACTAATGAACTGGTTGATATTATTACTGGTGCTTCCTCTTTGGGATGATAAAAAAATCACCCTGCATTGCCTCTTTATTTGACGTTGTTTTTGTAGAACATGAAACGAATTTTGACTTGATGAGACGAAGTATATATCCAAAGAATACCTTAAATAGAAAAGGAAAGATAATAAATACTAAACACTACTATATATTCAGGTAAAATACAAAAATTATAACATTTTTAAAACTTTTTTTTTTTGAAAGTCCTTCTCGCTTTAGGATTTTTTCCCATTAAGATTATGATGGTTTCATGTATGTGTCAGTTAAAAAAAATATGGCTAAGTAGCAATGAAACGAACCAAGAAAATGAAAACAATATATAGTGCTGTTGAAATAACAAAGACATTGGTATATATTTGTAAAATGTCTGTTAAATGTTTTTTATCTCAGGTTCTTGCTTGTCTTTGGTAGAAGAAATTATAGTAAACAAACAAACAAACAAACAAAAAAAAAAAAAAAAAA
For B1, the “maximum fold change of yEGFP, unnormalized” value ([4]; 1 μM α-factor (peak)) was 516.8±83.0 fold, the “fold change of yEGFP, unnormalized” value ([4]; 100 μM α-factor) was 482.6±98.5 fold and the “maximum fold change of yEGFP, SSC-normalized” value ([4]; 100 μM α-factor (peak)) was 128.8±7.2 fold. The “fold change of induction of yEGFP, SSC-normalized” value ([4]; α-factor 0-100 μM, 5 hrs, excluding PRP-induced expression boost) was 128.81±7.17 fold, the “CD19 level at unstimulated conditions” value ([5]; no GPCR stimulation) was “extremely low levels of CD19 at the limit of detection” and the “fold upregulation of CD19 display relative to unstimulated condition” value ([5]; α-factor 0-100 μM, 20 hrs, promoter driving CD19 in DIX41 background) was 629.6±98.6 fold.
